Biological target: T1, RG1 polypeptide (native RG1 protein, purified from transfected BHK cells) (human, UniProt Q9BUD6 27-331)
T1 construct: The Biacore assay used BHK-RG1; The Western blots used RG1 from COS, LNCaP and BHK cells and from lysates; also called nRG1; BHK-RG1
T1 chain: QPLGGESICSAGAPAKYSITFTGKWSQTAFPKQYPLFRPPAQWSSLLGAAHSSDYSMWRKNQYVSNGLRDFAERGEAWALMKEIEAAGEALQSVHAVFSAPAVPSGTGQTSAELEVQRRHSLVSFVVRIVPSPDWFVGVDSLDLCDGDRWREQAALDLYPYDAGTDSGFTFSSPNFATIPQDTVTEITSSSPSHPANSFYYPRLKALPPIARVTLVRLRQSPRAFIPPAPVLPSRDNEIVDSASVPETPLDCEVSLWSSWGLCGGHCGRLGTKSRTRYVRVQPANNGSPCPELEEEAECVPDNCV
Assay: BIAcore SPR; mab captured on anti-human IgG Fc, soluble BHK-RG1 12.5-400 nM, 1:1 Langmuir fit
Experimental: Kinetic constants (KD, kₐ and kd) of mab binding to native RG1 protein were determined by BIAcore using a capture format in which soluble, native RG1 protein was bound to immobilized mab on a sensor chip. ImmunoPure rabbit anti-human IgGFc (Pierce, 31142) was covalently immobilized to the Sensor Chip CM5 (Biacore, BR-1000-12) using standard amine coupling methods. 100 ug/ml antibody diluted in 10 mm acetate, pH 4.0 was used at 5 ul/min. HBS-EP (Biacore, BR-1001-88) was used as mobile phase. Unreacted sites were blocked with ethanolamine. Mabs were diluted to 200 nM with HBS and 50 ul was injected per cycle at 10 ul/min. Serial dilutions of BHK-RG1 (12.5-400 nM) were bound to the immobilized mab. Dissociation kinetics were measured immediately after the antigen injection was completed at 20 ul/min for 8 minutes. The surface was regenerated following each cycle using 25 ul of 10 mm glycine, pH 1.8 and then washed with HBS.
Data were fit to a 1:1 Langmuir model using the software provided by the instrument manufacturer (BIAevaluation 3.0), and kinetic constants were calculated.

B1: human RG1 monoclonal antibody B (antibody, V domains shown)
VH: EVQLVQSGGGLVMPGGSLRLSCAGSGFTFSSYVMHWLRQAPGKGLEWVSVIGTGGVTHYADSVKGRFMISRDNAKNSLYLQMNSLRAEDTAMYYCARWGYYGSGSYENDAFDIWGQGTMVTVSS
VL: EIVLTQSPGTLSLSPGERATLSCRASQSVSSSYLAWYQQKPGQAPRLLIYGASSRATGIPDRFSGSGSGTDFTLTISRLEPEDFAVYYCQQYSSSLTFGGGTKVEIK
notes: Hybridomas were screened for human IgG,kappa, and the isotype of this clone is not explicitly stated; also called M ab B
B1 showed a Kd of 8.4 nM, a koff of 0.00023 s⁻¹ and a kon of 29000 M⁻¹ s⁻¹.
